Results on nine molecules are retold here after patent publication US20040229290A1 (priority 2003, published 2004).

Substitutions are numbered along the chain they refer to. Read-outs that look alike come from different tables or passages of the source.

For one series, the target named is wild-type TIM (Homo sapiens, UniProt P60174). To be noted: cited from earlier work.
A further series addresses NovoTim1.0. It counts as biochemical.
For series [1] the following is noted: read-out: DHAP → GAP KM; cited from earlier work.
For series [2] the following is noted: read-out: KM (μM), second group; cited from earlier work.
The format of series [3] is binding. The note with it: read-out: K1 (μM) D-lac.
Series [4] is classed as binding. To be noted: read-out: K1 (μM) Pyr.
The format of series [5] is binding. The note with it: read-out: K1 (μM) L-lac.
Series [6] is classed as physicochemical. The note with it: pH 7.
For series [7] the following is noted: read-out: affinities of wild-type receptors for cognate ligands; cited from earlier work.

wild-type TIM, sequence (P60174 whole entry): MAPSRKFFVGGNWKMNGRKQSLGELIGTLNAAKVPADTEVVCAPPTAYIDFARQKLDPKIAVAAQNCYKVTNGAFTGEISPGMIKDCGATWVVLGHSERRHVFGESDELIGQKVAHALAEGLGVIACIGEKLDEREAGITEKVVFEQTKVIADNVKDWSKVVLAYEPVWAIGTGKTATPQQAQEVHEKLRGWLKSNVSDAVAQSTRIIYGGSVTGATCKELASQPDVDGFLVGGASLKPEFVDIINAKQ

A word on the Ki: it is the equilibrium dissociation constant of an inhibitor or competing ligand from its target. Take `O=C(O)COP(=O)(O)O` [phosphoglycolate]: the Ki on wild-type TIM is 4 µM; at NovoTim1.0 it was 130 µM.
Usually Km stands for the substrate concentration at which the rate is half of its maximum. For triose phosphate isomerase [wtTIM], the Km in [1] was 1600 µM; in series [2] it was 390 µM.

B1: Lac.R1: RBP variant designed to bind L-lactate (protein)
chain: KDTIALVVSTLNVPARVSLKDGAQKEADKLGYNLVVLDSQNNPAKELANVQDLTVRGTKILLINPTDSDAVGNAVKMANQANIPVITLSSQATKGEVVSHIASDNVLGGKIAGDYIAKKAGEGAKVIELQGIAGTSKAREMGEGFQQAVAAHKFNVLASQPADKDRIKGLNVMQNLLTAHPDVQAVFAQIDEMALGALRALQTAGKSDVMVVGFSGTPDGEKAVNDGKLAATIATLPDQIGAKGVETADKVLKGEKVQAKYPVDLKLVVKQ
Consider B1, for which the Kd turned out to be 40 µM in [3], 40 µM in series [4] and 7.4 µM in series [5].

B2: histidine-binding protein (protein, UniProt P0AEU0 23-260, looked up)
Histidine-binding periplasmic …: AIPQNIRIGTDPTYAPFESKNSQGELVGFDIDLAKELCKRINTQCTFVENPLDALIPSLKAKKIDAIMSSLSITEKRQQEIAFTDKLYAADSRLVVAKNSDIQPTVESLKGKRVGVLQGTTQETFGNEHWAPKGIEIVSYQGQDNIYSDLTAGRIDAAFQDEVAASEGFLKQPVGKDYKFGGPSVKDEKLFGVGTGMGLRKEDNELREALNKAFAEMRADGTYEKLAKKYFDFDVYGG
With B2, the Tm in [6] was 58 °C.

B3: glutamine-binding protein (protein, UniProt P0AEQ3 23-248, looked up)
Glutamine-binding periplasmic …: ADKKLVVATDTAFVPFEFKQGDKYVGFDVDLWAAIAKELKLDYELKPMDFSGIIPALQTKNVDLALAGITITDERKKAIDFSDGYYKSGLLVMVKANNNDVKSVKDLDGKVVAVKSGTGSVDYAKANIKTKDLRQFPNIDNAYMELGTNRADAVLHDTPNILYFIKTAGNGQFKAVGDSLEAQQYGIAFPKGSDELRDKVNGALKTLRENGTYNEIYKKWFGTEPK
Turning to B3, the Tm in series [6] was found to be 62 °C.

B4: arabinose-binding protein (protein, UniProt P02924 24-329, looked up)
L-arabinose-binding …: ENLKLGFLVKQPEEPWFQTEWKFADKAGKDLGFEVIKIAVPDGEKTLNAIDSLAASGAKGFVICTPDPKLGSAIVAKARGYDMKVIAVDDQFVNAKGKPMDTVPLVMMAATKIGERQGQELYKEMQKRGWDVKESAVMAITANELDTARRRTTGSMDALKAAGFPEKQIYQVPTKSNDIPGAFDAANSMLVQHPEVKHWLIVGMNDSTVLGGVRATEGQGFKAADIIGIGINGVDAVSELSKAQATGFYGSLLPSPDVHGYKSSEMLYNWVAKDVEPPKFTEVTDVVLITRDNFKEELEKKGLGGK
Turning to B4, the Tm in series [6] was 54 °C.

B5: ribose-binding protein (protein)
chain: KDTIALVVSTLNNPFFVSLKDGAQKEADKLGYNLVVLDSQNNPAKELANVQDLTVRGTKILLINPTDSDAVGNAVKMANQANIPVITLDRQATKGEVVSHIASDNVLGGKIAGDYIAKKAGEGAKVIELQGIAGTSAARERGEGFQQAVAAHKFNVLASQPADFDRIKGLNVMQNLLTAHPDVQAVFAQNDEMALGALRALQTAGKSDVMVVGFDGTPDGEKAVNDGKLAATIAQLPDQIGAKGVETADKVLKGEKVQAKYPVDLKLVVKQ
Regarding B5, in series [6], the Tm was 58 °C. In addition, the Kd in series [7] was 0.2 µM.

B6: Lac.G2: GBP variant designed to bind L-lactate (protein)
chain: ADTRIGVTIKKYDMNKMSVVRKAIEQDAKAAPDVQLLMNDSQNDQSKQNDQIDVLLAKGVKALAINLVDPAAAGTVIEKARGQNVPVVFFKLEPSRKALDSYDKAYYVGTDSKESGIIQGDLIAKHWAANQGWDLNKDGQIQFVLLKGEPGKPKAEAMTTYVIKELNDKGIKTEQLQLDTAMKDTAQAKDKMDAWLSGPNANKIEVVIANNDAMAMGAVEALKAHNKSSIPVFGVAALPEALALVKSGALAGTVLSDANNQAKATFDLAKNLADGKGAADGTNWKIDNKVVRVPYVGVDKDNLAEFSKK
B6: the Kd in series [3] amounted to 55 µM; in series [4] it was 115 µM; in [5], 2.1 µM. For the same molecule, in series [6], the Tm came out at 50 °C.

B7: Lac.G1 (protein)
chain: B6 chain with M14K, K16F, K152M, K154H, M158K, S256D
In the case of B7, the Kd in series [3] turned out to be 205 µM; in series [4], 255 µM; in series [5], 2.8 µM.
